± gives the uncertainty stated by the source.
B1: E3 ubiquitin-protein ligase NEDD4, residues 836 to 881; numbered along this chain, P46934 (parent)
chain: EIEQGFLPKGWEVRHAPNGRPFFIDHNTKTTTWEDPRLKIPAHLRG

Variants of: B1
Experiment: abundance fitness (aPCA) (normalised: wild type 0, dead -1); higher = more abundant; growth selection in yeast, the domain comes from the species named
Conditions: Homo sapiens

| Variant | abundance fitness |
| --- | --- |
| T28S | -0.201 ± 0.048 |
| T28F | -0.776 ± 0.14 |
| T28H | -0.338 ± 0.073 |
| T28P | -0.823 ± 0.066 |
| T28E | -0.218 ± 0.069 |
| T28A | -0.383 ± 0.055 |
| T28M | -0.487 ± 0.038 |
| T28N | 0.035 ± 0.067 |
| T28L | -0.341 ± 0.049 |
| T28G | -0.187 ± 0.041 |
| T28D | -0.327 ± 0.091 |
| T28K | -0.251 ± 0.042 |
| T28W | -0.971 ± 0.071 |
| T28I | -0.901 ± 0.16 |
| T28V | -0.78 ± 0.055 |
| F22D | -0.35 ± 0.11 |
| F22K | -0.702 ± 0.1 |
| F22R | -0.745 ± 0.079 |
| F22I | -0.168 ± 0.07 |
| F22A | -0.688 ± 0.08 |
| F22G | -0.712 ± 0.048 |
| F22N | -0.774 ± 0.1 |
| F22L | -0.151 ± 0.04 |
| F22E | -0.393 ± 0.067 |

| Variant | abundance fitness |
| --- | --- |
| F22H | -0.844 ± 0.17 |
| F22Q | -0.239 ± 0.033 |
| F22C | -0.122 ± 0.069 |
| F22S | -0.797 ± 0.091 |
| F22V | -0.211 ± 0.048 |
| F22T | -0.536 ± 0.06 |
| N27F | -0.189 ± 0.066 |
| N27Y | -0.593 ± 0.047 |
| N27L | -0.417 ± 0.053 |
| N27M | -0.409 ± 0.074 |
| N27S | -0.302 ± 0.05 |
| N27H | -0.543 ± 0.11 |
| N27W | -0.827 ± 0.12 |
| N27P | -0.935 ± 0.16 |
| N27Q | -0.364 ± 0.036 |
| N27A | -0.295 ± 0.057 |
| N27G | -0.382 ± 0.033 |
| N27C | -0.405 ± 0.062 |
| N27K | -0.168 ± 0.045 |
| N27T | -0.091 ± 0.048 |
| N27I | -0.105 ± 0.046 |
| N27D | -0.12 ± 0.088 |
| G19N | -0.551 ± 0.12 |
| G19M | -0.827 ± 0.094 |

| Variant | abundance fitness |
| --- | --- |
| G19T | -1.05 ± 0.38 |
| G19E | -0.628 ± 0.072 |
| G19K | -0.826 ± 0.17 |
| G19L | -0.923 ± 0.11 |
| G19A | -0.734 ± 0.1 |
| G19W | -0.833 ± 0.1 |
| G19H | -0.496 ± 0.27 |
| G19D | -0.943 ± 0.26 |
| G19C | -0.929 ± 0.2 |
| G19Y | -0.828 ± 0.053 |
| G19P | -0.695 ± 0.14 |
| G19Q | -0.632 ± 0.15 |
| R20H | -0.064 ± 0.071 |
| R20N | -0.271 ± 0.043 |
| R20C | -0.278 ± 0.05 |
| R20M | -0.052 ± 0.052 |
| R20K | 0.16 ± 0.046 |
| R20T | -0.207 ± 0.07 |
| R20L | -0.223 ± 0.036 |
| R20E | -0.035 ± 0.055 |
| R20G | -0.917 ± 0.12 |
| R20I | -0.257 ± 0.051 |
| R20W | -0.946 ± 0.14 |
| R20D | -0.212 ± 0.083 |

| Variant | abundance fitness |
| --- | --- |
| R20A | 0.016 ± 0.086 |
| R20Q | 0.137 ± 0.051 |
| R20V | -0.105 ± 0.051 |
| R20P | -0.857 ± 0.17 |
| R20F | -0.78 ± 0.1 |
| R20Y | -0.577 ± 0.1 |
| R20S | -0.087 ± 0.05 |
| N18W | -0.664 ± 0.054 |
| N18S | -0.241 ± 0.051 |
| N18Y | -0.802 ± 0.23 |
| N18V | -0.83 ± 0.076 |
| N18T | -0.29 ± 0.033 |
| P21S | -0.233 ± 0.046 |
| P21D | -0.445 ± 0.039 |
| P21C | -0.084 ± 0.06 |
| P21M | -0.218 ± 0.057 |
| P21T | -0.451 ± 0.073 |
| P21A | -0.055 ± 0.04 |
| P21W | -0.402 ± 0.04 |
| P21V | -0.149 ± 0.057 |
| P21L | -0.131 ± 0.036 |
| P21F | -0.601 ± 0.1 |
| P21Q | -0.058 ± 0.062 |
| P21I | 0.033 ± 0.061 |

| Variant | abundance fitness |
| --- | --- |
| P21R | -0.109 ± 0.038 |
| P21K | 0.027 ± 0.051 |
| P21N | -0.487 ± 0.11 |
| P21Y | 0.055 ± 0.064 |
| P21E | -0.149 ± 0.059 |
| I24P | -0.929 ± 0.19 |
| I24R | -0.609 ± 0.067 |
| I24A | -0.818 ± 0.14 |
| I24E | -0.849 ± 0.16 |
| I24W | -0.356 ± 0.058 |
| I24L | 0.003 ± 0.083 |
| I24Q | -0.947 ± 0.11 |
| I24Y | 0.137 ± 0.16 |
| I24T | -0.701 ± 0.17 |
| I24C | -0.402 ± 0.071 |
| I24N | -0.715 ± 0.1 |
| I24G | -0.98 ± 0.12 |
| I24F | -0.522 ± 0.21 |
| I24S | -1.09 ± 0.2 |
| I24H | -0.523 ± 0.079 |
| F23Q | -0.824 ± 0.1 |
| F23L | -0.633 ± 0.059 |
| F23S | -0.856 ± 0.099 |
| F23T | -0.883 ± 0.14 |

| Variant | abundance fitness |
| --- | --- |
| F23G | -0.566 ± 0.049 |
| F23N | -0.79 ± 0.15 |
| F23W | -0.147 ± 0.049 |
| F23Y | -0.27 ± 0.076 |
| F23K | -0.47 ± 0.07 |
| F23I | -0.896 ± 0.13 |
| F23A | -0.416 ± 0.088 |
| F23V | -0.651 ± 0.057 |
| F23C | -0.966 ± 0.12 |
| F23H | -0.656 ± 0.12 |
| F23M | -0.751 ± 0.12 |
| F23D | -0.679 ± 0.066 |
| H26K | -0.342 ± 0.087 |
| H26A | -0.69 ± 0.05 |
| H26Y | -0.749 ± 0.16 |
| H26R | -0.45 ± 0.037 |
| H26E | -0.591 ± 0.056 |
| H26D | -0.515 ± 0.062 |
| H26Q | -0.381 ± 0.043 |
| H26C | -0.388 ± 0.052 |
| H26I | -0.078 ± 0.1 |
| H26G | -0.501 ± 0.036 |
| H26N | -0.449 ± 0.12 |
| H26M | -0.262 ± 0.053 |

| Variant | abundance fitness |
| --- | --- |
| H26T | -0.357 ± 0.079 |
| H26V | -0.423 ± 0.038 |
| H26S | -0.47 ± 0.051 |
| H26F | -0.209 ± 0.098 |
| H26W | -0.327 ± 0.062 |
| H26L | -0.507 ± 0.05 |
| D25C | -0.447 ± 0.046 |
| D25A | -0.848 ± 0.049 |
| D25H | -0.394 ± 0.16 |
| D25T | -0.94 ± 0.23 |
| D25I | -0.792 ± 0.34 |
| D25W | -0.86 ± 0.17 |
| D25E | -0.351 ± 0.13 |
| D25R | -0.682 ± 0.067 |
| D25L | -0.922 ± 0.099 |
| D25F | -1.04 ± 0.22 |
| D25G | -0.836 ± 0.045 |
| D25Q | -0.951 ± 0.25 |
| D25S | -0.84 ± 0.061 |
| D25V | -0.981 ± 0.061 |
| D25M | -1.15 ± 0.25 |
| D25Y | -0.768 ± 0.21 |
| D25N | -0.261 ± 0.091 |

Reference: the Human Domainome abundance scans (Beltran et al. 2025)
